Key:
[1] = target: T1, Y67D8A.3 (Y67D8A.3) (Caenorhabditis elegans) (UniProt Q95XU1)
T1 sequence: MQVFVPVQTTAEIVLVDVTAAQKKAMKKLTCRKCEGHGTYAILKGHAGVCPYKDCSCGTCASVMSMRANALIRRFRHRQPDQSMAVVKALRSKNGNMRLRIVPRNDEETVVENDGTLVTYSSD

[2] = target: T2, nhr-7 (F54D1.4) (Caenorhabditis elegans) (UniProt Q20765)
T2 sequence: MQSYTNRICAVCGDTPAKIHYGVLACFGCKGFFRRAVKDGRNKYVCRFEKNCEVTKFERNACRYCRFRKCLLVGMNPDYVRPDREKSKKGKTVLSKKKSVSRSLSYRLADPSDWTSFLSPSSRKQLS

[3] = target: T3, nhr-3 (H01A20.1) (Caenorhabditis elegans) (UniProt Q9XTJ4)
T3 sequence: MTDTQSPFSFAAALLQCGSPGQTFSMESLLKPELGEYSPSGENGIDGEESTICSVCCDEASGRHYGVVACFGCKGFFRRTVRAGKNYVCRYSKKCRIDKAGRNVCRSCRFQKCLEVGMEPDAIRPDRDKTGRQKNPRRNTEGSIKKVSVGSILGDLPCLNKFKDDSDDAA

[4] = target: T4, nhr-46 (C45E5.6) (Caenorhabditis elegans) (UniProt Q95QR2)
T4 sequence: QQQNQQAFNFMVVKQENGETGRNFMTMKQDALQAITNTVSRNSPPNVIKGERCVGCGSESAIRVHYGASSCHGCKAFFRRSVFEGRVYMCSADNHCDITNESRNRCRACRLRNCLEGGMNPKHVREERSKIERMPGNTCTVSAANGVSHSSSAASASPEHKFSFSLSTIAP

[5] = target: T5, nhr-1 (R09G11.2) (Caenorhabditis elegans) (UniProt Q21878)
T5 sequence: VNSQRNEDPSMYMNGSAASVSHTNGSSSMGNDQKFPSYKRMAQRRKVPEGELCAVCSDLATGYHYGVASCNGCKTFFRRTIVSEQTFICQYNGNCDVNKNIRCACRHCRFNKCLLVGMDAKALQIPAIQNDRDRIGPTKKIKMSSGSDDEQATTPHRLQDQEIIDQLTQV

[6] = target: nhr-34 (F58G6.5) (Caenorhabditis elegans) (UniProt Q21006)
[7] = target: T6, daf-12 (F11A1.3) (Caenorhabditis elegans) (UniProt G5EFF5)
T6 sequence: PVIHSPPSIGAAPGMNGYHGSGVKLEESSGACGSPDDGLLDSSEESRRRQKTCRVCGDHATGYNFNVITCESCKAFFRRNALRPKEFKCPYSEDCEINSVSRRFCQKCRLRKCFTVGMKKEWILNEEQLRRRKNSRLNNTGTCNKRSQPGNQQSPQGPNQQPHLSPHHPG

[8] = target: T7, mab-3 (Y53C12B.5) (Caenorhabditis elegans) (UniProt O18214)
T7 sequence: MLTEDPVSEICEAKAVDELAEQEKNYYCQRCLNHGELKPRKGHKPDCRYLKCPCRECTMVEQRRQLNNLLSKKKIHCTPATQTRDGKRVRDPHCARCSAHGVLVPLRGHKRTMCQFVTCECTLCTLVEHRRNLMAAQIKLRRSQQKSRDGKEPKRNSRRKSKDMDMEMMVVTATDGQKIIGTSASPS

[9] = system: T8, dmd-3 (Y43F8C.10) (Caenorhabditis elegans)
T8 sequence: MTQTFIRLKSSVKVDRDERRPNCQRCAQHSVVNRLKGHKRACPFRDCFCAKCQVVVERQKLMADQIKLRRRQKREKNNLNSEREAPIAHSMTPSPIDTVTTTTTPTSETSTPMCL

[10] = system: T9, C34D1.1 (C34D1.1) (Caenorhabditis elegans)
T9 sequence: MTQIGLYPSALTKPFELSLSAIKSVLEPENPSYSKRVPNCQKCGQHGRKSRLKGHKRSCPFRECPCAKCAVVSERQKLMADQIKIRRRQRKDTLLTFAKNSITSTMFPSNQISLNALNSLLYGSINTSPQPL

[11] = target: T10, dmd-6 (F13G11.1) (Caenorhabditis elegans) (UniProt O62159)
T10 sequence: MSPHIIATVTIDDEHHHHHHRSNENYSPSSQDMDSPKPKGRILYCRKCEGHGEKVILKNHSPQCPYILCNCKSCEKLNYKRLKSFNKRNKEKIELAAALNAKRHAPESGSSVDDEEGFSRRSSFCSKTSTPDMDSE

[12] = target: T11, C46E10.8 (C46E10.8) (Caenorhabditis elegans) (UniProt O44719)
T11 sequence: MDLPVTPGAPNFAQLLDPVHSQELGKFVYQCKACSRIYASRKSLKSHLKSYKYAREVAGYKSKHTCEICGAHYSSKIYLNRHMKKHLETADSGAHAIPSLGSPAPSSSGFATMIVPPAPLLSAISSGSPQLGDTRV

[13] = target: T12, nhr-122 (Y41D4B.9) (Caenorhabditis elegans) (UniProt Q95Y09)
T12 sequence: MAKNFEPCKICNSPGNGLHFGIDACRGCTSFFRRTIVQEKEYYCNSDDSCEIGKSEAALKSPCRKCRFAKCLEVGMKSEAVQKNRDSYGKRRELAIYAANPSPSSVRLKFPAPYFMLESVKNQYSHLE

[14] = target: T13, nhr-154 (C13C4.2) (Caenorhabditis elegans) (UniProt O01931)
T13 sequence: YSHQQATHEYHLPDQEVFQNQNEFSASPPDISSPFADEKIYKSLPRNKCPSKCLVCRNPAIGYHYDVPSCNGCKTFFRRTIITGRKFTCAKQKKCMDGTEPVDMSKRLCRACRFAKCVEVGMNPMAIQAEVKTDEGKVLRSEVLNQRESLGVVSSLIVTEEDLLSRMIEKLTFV

[15] = target: T14, pop-1 (W10C8.2) (Caenorhabditis elegans) (UniProt Q10666)
T14 sequence: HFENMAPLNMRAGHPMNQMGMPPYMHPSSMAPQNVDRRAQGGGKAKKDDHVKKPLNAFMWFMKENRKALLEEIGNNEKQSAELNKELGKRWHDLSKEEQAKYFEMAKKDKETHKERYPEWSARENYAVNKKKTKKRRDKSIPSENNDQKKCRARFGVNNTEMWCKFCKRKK

[16] = target: T15, efl-2 (Y48C3A.17) (Caenorhabditis elegans) (UniProt A5HWA8)
T15 sequence: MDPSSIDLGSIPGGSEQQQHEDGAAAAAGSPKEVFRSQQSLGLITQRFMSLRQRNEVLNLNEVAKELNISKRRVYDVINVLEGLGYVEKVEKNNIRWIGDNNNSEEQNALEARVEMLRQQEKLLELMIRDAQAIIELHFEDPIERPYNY

[17] = target: T16, fkh-9 (K03C7.2) (Caenorhabditis elegans) (UniProt Q21187)
T16 sequence: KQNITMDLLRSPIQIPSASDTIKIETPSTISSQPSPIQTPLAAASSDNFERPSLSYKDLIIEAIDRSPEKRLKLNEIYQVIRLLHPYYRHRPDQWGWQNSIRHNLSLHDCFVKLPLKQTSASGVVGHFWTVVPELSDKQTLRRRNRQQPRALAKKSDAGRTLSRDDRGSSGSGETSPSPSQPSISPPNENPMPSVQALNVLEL

[18] = target: T17, let-381 (F26B1.7) (Caenorhabditis elegans) (UniProt P91278)
T17 sequence: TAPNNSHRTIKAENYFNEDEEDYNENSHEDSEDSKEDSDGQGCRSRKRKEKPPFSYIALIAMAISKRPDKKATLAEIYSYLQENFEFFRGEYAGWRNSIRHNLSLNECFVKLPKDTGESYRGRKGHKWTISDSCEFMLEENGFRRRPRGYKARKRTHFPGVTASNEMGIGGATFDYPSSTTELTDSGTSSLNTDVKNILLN

[19] = target: T18, lin-31 (K10G6.1) (Caenorhabditis elegans) (UniProt P34683)
T18 sequence: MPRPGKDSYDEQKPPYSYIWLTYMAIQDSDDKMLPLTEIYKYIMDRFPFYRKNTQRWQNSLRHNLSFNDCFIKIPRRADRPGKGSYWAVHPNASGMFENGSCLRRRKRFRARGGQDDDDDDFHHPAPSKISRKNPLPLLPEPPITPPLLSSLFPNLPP

[20] = target: T19, ztf-27 (T09F3.1) (Caenorhabditis elegans) (UniProt G5EDA0)
T19 sequence: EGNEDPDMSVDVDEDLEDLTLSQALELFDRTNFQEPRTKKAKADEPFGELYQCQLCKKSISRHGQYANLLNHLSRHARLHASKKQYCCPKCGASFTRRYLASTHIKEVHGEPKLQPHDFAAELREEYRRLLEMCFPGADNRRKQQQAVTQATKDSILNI

[21] = target: T20, D1005.3 (D1005.3) (Caenorhabditis elegans) (UniProt Q18909)
T20 sequence: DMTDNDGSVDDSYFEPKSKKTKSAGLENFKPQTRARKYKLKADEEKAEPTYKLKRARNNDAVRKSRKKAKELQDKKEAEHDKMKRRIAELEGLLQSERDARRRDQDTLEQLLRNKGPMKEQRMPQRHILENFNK

Sequence of nhr-34 (F58G6.5) (Caenorhabditis elegans) (Q21006 99-268): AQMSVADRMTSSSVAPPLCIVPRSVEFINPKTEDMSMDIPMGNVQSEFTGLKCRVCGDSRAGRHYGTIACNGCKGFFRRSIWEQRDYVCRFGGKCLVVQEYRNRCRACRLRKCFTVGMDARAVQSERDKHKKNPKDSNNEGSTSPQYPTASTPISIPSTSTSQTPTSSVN

AAAAGGTC (double strand) [8-mer AAAAGGTC]
binding signal (PBM E-score (-0.5 to 0.5)) [1]: 0.456

AAAGACCA (double strand) [8-mer AAAGACCA]
binding signal (PBM E-score (-0.5 to 0.5)) [2]: 0.472
binding signal (PBM E-score (-0.5 to 0.5)) [3]: 0.459

AAAGATCA (double strand) [8-mer AAAGATCA]
binding signal (PBM E-score (-0.5 to 0.5)) [2]: 0.476
binding signal (PBM E-score (-0.5 to 0.5)) [3]: 0.488
binding signal (PBM E-score (-0.5 to 0.5)) [4]: 0.49
binding signal (PBM E-score (-0.5 to 0.5)) [5]: 0.472
binding signal (PBM E-score (-0.5 to 0.5)) [6]: 0.485

AAAGGTCA (double strand) [8-mer AAAGGTCA]
binding signal (PBM E-score (-0.5 to 0.5)) [3]: 0.479
binding signal (PBM E-score (-0.5 to 0.5)) [1]: 0.493
binding signal (PBM E-score (-0.5 to 0.5)) [7]: 0.491

AAAGGTTG (double strand) [8-mer AAAGGTTG]
binding signal (PBM E-score (-0.5 to 0.5)) [1]: 0.454

AAGACCAA (double strand) [8-mer AAGACCAA]
binding signal (PBM E-score (-0.5 to 0.5)) [2]: 0.469
binding signal (PBM E-score (-0.5 to 0.5)) [3]: 0.457
binding signal (PBM E-score (-0.5 to 0.5)) [6]: 0.473

AAGATCAA (double strand) [8-mer AAGATCAA]
binding signal (PBM E-score (-0.5 to 0.5)) [2]: 0.455
binding signal (PBM E-score (-0.5 to 0.5)) [3]: 0.486
binding signal (PBM E-score (-0.5 to 0.5)) [4]: 0.496
binding signal (PBM E-score (-0.5 to 0.5)) [6]: 0.494

AATGTTGC (double strand) [8-mer AATGTTGC]
binding signal (PBM E-score (-0.5 to 0.5)) [8]: 0.498
binding signal (PBM E-score (-0.5 to 0.5)) [9]: 0.465
binding signal (PBM E-score (-0.5 to 0.5)) [10]: 0.47

AATTTATA (double strand) [8-mer AATTTATA]
binding signal (PBM E-score (-0.5 to 0.5)) [11]: 0.471
binding signal (PBM E-score (-0.5 to 0.5)) [12]: 0.457

AATTTATG (double strand) [8-mer AATTTATG]
binding signal (PBM E-score (-0.5 to 0.5)) [12]: 0.465

ACTCCAAT (double strand) [8-mer ACTCCAAT]
binding signal (PBM E-score (-0.5 to 0.5)) [13]: 0.464

AGACTCCA (double strand) [8-mer AGACTCCA]
binding signal (PBM E-score (-0.5 to 0.5)) [13]: 0.457

AGGCGCCA (double strand) [8-mer AGGCGCCA]
binding signal (PBM E-score (-0.5 to 0.5)) [14]: 0.452

ATAAATTA (double strand) [8-mer ATAAATTA]
binding signal (PBM E-score (-0.5 to 0.5)) [12]: 0.451

ATACTCCA (double strand) [8-mer ATACTCCA]
binding signal (PBM E-score (-0.5 to 0.5)) [13]: 0.456

ATCAAAGA (double strand) [8-mer ATCAAAGA]
binding signal (PBM E-score (-0.5 to 0.5)) [15]: 0.456

ATGTTGCA (double strand) [8-mer ATGTTGCA]
binding signal (PBM E-score (-0.5 to 0.5)) [8]: 0.497
binding signal (PBM E-score (-0.5 to 0.5)) [9]: 0.459

CATCAAAG (double strand) [8-mer CATCAAAG]
binding signal (PBM E-score (-0.5 to 0.5)) [15]: 0.463

CTTTGATC (double strand) [8-mer CTTTGATC]
binding signal (PBM E-score (-0.5 to 0.5)) [15]: 0.451

GAAAGGTC (double strand) [8-mer GAAAGGTC]
binding signal (PBM E-score (-0.5 to 0.5)) [1]: 0.461

GACTCCAA (double strand) [8-mer GACTCCAA]
binding signal (PBM E-score (-0.5 to 0.5)) [13]: 0.459

GCGCCAAA (double strand) [8-mer GCGCCAAA]
binding signal (PBM E-score (-0.5 to 0.5)) [14]: 0.453

GGCGCCAA (double strand) [8-mer GGCGCCAA]
binding signal (PBM E-score (-0.5 to 0.5)) [16]: 0.488
binding signal (PBM E-score (-0.5 to 0.5)) [14]: 0.46

GTAAACAA (double strand) [8-mer GTAAACAA]
binding signal (PBM E-score (-0.5 to 0.5)) [17]: 0.492
binding signal (PBM E-score (-0.5 to 0.5)) [18]: 0.486
binding signal (PBM E-score (-0.5 to 0.5)) [19]: 0.47

TAAACAAA (double strand) [8-mer TAAACAAA]
binding signal (PBM E-score (-0.5 to 0.5)) [18]: 0.493
binding signal (PBM E-score (-0.5 to 0.5)) [19]: 0.473

TAAATTTA (double strand) [8-mer TAAATTTA]
binding signal (PBM E-score (-0.5 to 0.5)) [12]: 0.459

TACTCCAA (double strand) [8-mer TACTCCAA]
binding signal (PBM E-score (-0.5 to 0.5)) [13]: 0.459

TATTTACA (double strand) [8-mer TATTTACA]
binding signal (PBM E-score (-0.5 to 0.5)) [19]: 0.474

TGGCGCCA (double strand) [8-mer TGGCGCCA]
binding signal (PBM E-score (-0.5 to 0.5)) [16]: 0.492
binding signal (PBM E-score (-0.5 to 0.5)) [20]: 0.491
binding signal (PBM E-score (-0.5 to 0.5)) [14]: 0.474

TGTAAACA (double strand) [8-mer TGTAAACA]
binding signal (PBM E-score (-0.5 to 0.5)) [17]: 0.485
binding signal (PBM E-score (-0.5 to 0.5)) [18]: 0.461
binding signal (PBM E-score (-0.5 to 0.5)) [19]: 0.476

TTGCGAAA (double strand) [8-mer TTGCGAAA]
binding signal (PBM E-score (-0.5 to 0.5)) [21]: 0.466
